Here are results for two proteins from ChEMBL document CHEMBL1158843, “Development of a radiochemical cyclooxygenase-1 and -2 in vitro assay for identification of natural products as inhibitors of prostaglandin biosynthesis” (J Nat Prod, 1998).

Substrate in series [1]: CCCCC/C=C\C/C=C\C/C=C\C/C=C\CCCC(=O)O
The series can be described thus: Activity of bovine seminal microsomal COX1. Particulars: Bos taurus.

Substrate in series [2]: CCCCC/C=C\C/C=C\C/C=C\C/C=C\CCCC(=O)O
Put plainly: Activity of sheep placental cotyledons COX2. Particulars: Ovis aries.

B1: Prostaglandin G/H synthase 1 (Bos taurus), O62664 (protein)
chain: MSRQGISLRFPLLLLLLSPSPVLPADPGAPAPVNPCCYYPCQHQGICVRFGLDRYQCDCTRTGYYGPNCTIPEIWTWLRTTLRPSPSFVHFLLTHGRWLWDFVNATFIRDKLMRLVLTVRSNLIPSPPTYNVAHDYISWESFSNVSYYTRILPSVPRDCPTPMGTKGKKQLPDAEFLSRRFLLRRKFIPDPQGTNLMFAFFAQHFTHQFFKTSGKMGPGFTKALGHGVDLGHIYGDNLERQYQLRLFKDGKLKYQMLNGEVYPPSVEEAPVLMHYPRGIPPQSQMAVGQEVFGLLPGLMVYATIWLREHNRVCDLLKAEHPTWGDEQLFQTARLILIGETIKIVIEEYVQQLSGYFLQLKFDPELLFGAQFQYRNRIAMEFNQLYHWHPLMPDSFRVGPQDYSYEQFLFNTSMLVDYGVEALVDAFSRQPAGRIGGGRNIDHHILHVAVDVIKESRELRLQPFNEYRKRFGMKPYTSFQELTGEKEMAAELEELYGDIDALEFYPGLLLEKCHPNSIFGESMIEMGAPFSLKGLLGNPICSPEYWKASTFGGDVGFNLVKTATLKKLVCLNTKTCPYVSFHVPDPHREDRPGVERPPTEL
Consider B1, for which, in series [1], the Michaelis-Menten constant (Km) was 8.8 µM.

B2: Prostaglandin G/H synthase 2 (Ovis aries), P79208 (protein)
chain: MLARALLLCAAVVCGAANPCCSHPCQNRGVCMSVGFDQYKCDCTRTGFYGENCTTPEFLTRIKLLLKPTPDTVHYILTHFKGVWNIVNKISFLRNMIMRYVLTSRSHLIESPPTYNVHYSYKSWEAFSNLSYYTRALPPVPDDCPTPMGVKGRKELPDSKEVVKKVLLRRKFIPDPQGTNLMFAFFAQHFTHQFFKTDIERGPAFTKGKNHGVDLSHVYGESLERQHNRRLFKDGKMKYQMINGEMYPPTVKDTQVEMIYPPHIPEHLKFAVGQEVFGLVPGLMMYATIWLREHNRVCDVLKQEHPEWGDEQLFQTSRLILIGETIKIVIEDYVQHLSGYHFKLKFDPELLFNQQFQYQNRIAAEFNTLYHWHPLLPDVFQIDGQEYNYQQFIYNNSVLLEHGVTQFVESFTRQIAGRVAGRRNLPAAVEKVSKASLDQSREMKYQSFNEYRKRFLLKPYESFEELTGEKEMAAELEALYGDIDAMELYPALLVEKPAPDAIFGETMVEAGAPFSLKGLMGNPICSPEYWKPSTFGGEVGFKIINTASIQSLICSNVKGCPFTSFSVQDAHLTKTVTINASSSHSGLDDINPTVLLKERSTEL
As for B2, the Michaelis constant (Km) in series [2] was 9.7 µM.
